# Results as given in patent US20120040938A1, “GLUCOCORTICOID RECEPTOR ALLELES AND USES THEREOF” (SHRINERS HOSPITAL FOR CHILDREN, priority 2009, published 2012).
# B1: allele 66-63: Full-length human GR with substitutions N72D, V321A, R460K, F749G (protein, UniProt P04150 1-777, looked up, variant N72D V321A R460K F749G)
# Glucocorticoid receptor: MDSKESLTPGREENPSSVLAQERGDVMDFYKTLRGGATVKVSASSPSLAVASQSDSKQRRLLVDFPKGSVSDAQQPDLSKAVSLSMGLYMGETETKVMGNDLGFPQQGQISLSSGETDLKLLEESIANLNRSTSVPENPKSSASTAVSAAPTEKEFPKTHSDVSSEQQHLKGQTGTNGGNVKLYTTDQSTFDILQDLEFSSGSPGKETNESPWRSDLLIDENCLLSPLAGEDDSFLLEGNSNEDCKPLILPDTKPKIKDNGDLVLSSPSNVTLPQVKTEKEDFIELCTPGVIKQEKLGTVYCQASFPGANIIGNKMSAISAHGVSTSGGQMYHYDMNTASLSQQQDQKPIFNVIPPIPVGSENWNRCQGSGDDNLTSLGTLNFPGRTVFSNGYSSPSMRPDVSSPPSSSSTATTGPPPKLCLVCSDEASGCHYGVLTCGSCKVFFKRAVEGQHNYLCAGKNDCIIDKIRRKNCPACRYRKCLQAGMNLEARKTKKKIKGIQQATTGVSQETSENPGNKTIVPATLPQLTPTLVSLLEVIEPEVLYAGYDSSVPDSTWRIMTTLNMLGGRQVIAAVKWAKAIPGFRNLHLDDQMTLLQYSWMFLMAFALGWRSYRQSSANLLCFAPDLIINEQRMTLPCMYDQCKHMLYVSSELHRLQVSYEEYLCMKTLLLLSSVPKDGLKSQELFDEIRMTYIKELGKAIVKREGNSSQNWQRFYQLTKLLDSMHEVVENLLNYCFQTFLDKTMSIEGPEMLAEIITNQIPKYSNGNIKKLLFHQK
# B2: allele 66-62: Full-length human GR with substitutions N72D, V321A, N766S (protein, UniProt P04150 1-777, looked up, variant N72D V321A N766S)
# Glucocorticoid receptor: MDSKESLTPGREENPSSVLAQERGDVMDFYKTLRGGATVKVSASSPSLAVASQSDSKQRRLLVDFPKGSVSDAQQPDLSKAVSLSMGLYMGETETKVMGNDLGFPQQGQISLSSGETDLKLLEESIANLNRSTSVPENPKSSASTAVSAAPTEKEFPKTHSDVSSEQQHLKGQTGTNGGNVKLYTTDQSTFDILQDLEFSSGSPGKETNESPWRSDLLIDENCLLSPLAGEDDSFLLEGNSNEDCKPLILPDTKPKIKDNGDLVLSSPSNVTLPQVKTEKEDFIELCTPGVIKQEKLGTVYCQASFPGANIIGNKMSAISAHGVSTSGGQMYHYDMNTASLSQQQDQKPIFNVIPPIPVGSENWNRCQGSGDDNLTSLGTLNFPGRTVFSNGYSSPSMRPDVSSPPSSSSTATTGPPPKLCLVCSDEASGCHYGVLTCGSCKVFFKRAVEGQHNYLCAGRNDCIIDKIRRKNCPACRYRKCLQAGMNLEARKTKKKIKGIQQATTGVSQETSENPGNKTIVPATLPQLTPTLVSLLEVIEPEVLYAGYDSSVPDSTWRIMTTLNMLGGRQVIAAVKWAKAIPGFRNLHLDDQMTLLQYSWMFLMAFALGWRSYRQSSANLLCFAPDLIINEQRMTLPCMYDQCKHMLYVSSELHRLQVSYEEYLCMKTLLLLSSVPKDGLKSQELFDEIRMTYIKELGKAIVKREGNSSQNWQRFYQLTKLLDSMHEVVENLLNYCFQTFLDKTMSIEFPEMLAEIITNQIPKYSSGNIKKLLFHQK
# Test system: GRE (glucocorticoid response element)-Luciferase reporter
# Assay: GRE-luciferase reporter assay of transactivation potential of reconstructed GR alleles co-transfected into HEK 293 cells
# Assay type: cell-based, human
# From the text: An exemplary assay for determining the transactivation potential of a GR polypeptide is described below. The GR nucleic acid sequence encoding the GR polypeptide of interest can be cloned into a first vector (e.g., pcDNA4, Invitrogen, Carlsbad, Calif.). A second vector can be constructed to contain a reporter gene, e.g., the luciferase gene, under the control of a GRE. These two vectors can be co-transfected into a cell, e.g., a human embryonic kidney cell (HEK 293). Skilled practitioners will recognize that a number of cell types can be used to test whether a GR polypeptide is functional. The cell will then express the GR polypeptide encoded by the GR nucleic acid sequence on the first vector. […] The product of the reporter gene, e.g., luciferase, can then be detected and quantified using conventional methods. For example, when a luciferin substrate is added, luciferase will produce luminescence that can be detected and quantified. […]
# The reconstructed GR allele expression plasmids described above were co-transfected with a GRE (glucocorticoid response element)-Luciferase reporter plasmid (Stratagene) using Fugene HD/6 (Roche) into HEK (human embryonic kidney) 293 cells, grown in Dulbecco's Modified Eagle Medium with 10% fetal bovine serum and 1% Penicillin/Streptomycin (Invitrogen.). […] The differences in luminescence were graphed and analyzed.
Molecule,"luciferase activity (transactivation potential), in words (FIG. 5)","fold change in luciferase activity relative to the luciferase activity induced by the reference human GR polypeptide (medium with 10% fetal bovine serum, FIG. 5, experiment repeated six times) [fold]"
B1,very low level,
B2,,5.5
